Non-standard residues stand in square brackets, D forms with d. Groups on a side chain read outwards from the residue. Primed or numbered codes have the meaning given here. No end group written: not given here. *: point of attachment. Biotin = O=C1N[C@H]2[C@H](CS[C@H]2CCCCC(=O)*)N1; PEG2′ = not defined here
Biological target: I-E^k (murine MHC class II molecule, surface-resident on BMDCs and B-cells) (mouse (endogenous in BMDCs and B-cells of B10.A mice))
Experiment: flow cytometry on cells; B-cells and BMDCs pulsed with 25 and 50 uM MCC-PEG2-biotin for up to 36 h (with LPS), stained with saturating mSav-AF647 or 14.4.4 scFV-AF647 (10 ug/ml); ratio of the MFIs

B1: C-terminally biotinylated MCC peptide 88-103 derivative (MCC-PEG2-biotin) (peptide)
peptide: ANERADLIAYLKQATK[dS][dS][dC]([maleimide-PEG2′-Biotin])
proportion of surface-resident I-E^k loaded with the peptide: < 17%

Source: publication PMC10626418
